B1: His6-MDH (malate dehydrogenase) (enzyme)
chain: AKVAVLGASGGIGQPLSLLLKNSPLVSRLTLYDIAHTPGVAADLSHIETRATVKGYLGPEQLPDCLKGCDVVVIPAGVPRKPGMTRDDLFNTNATIVATLTAACAQHCPDAMICIISNPVNSTIPITAEVFKKHGVYNPNKIFGVTTLDIVRANAFVAELKGLDPARVSVPVIGGHAGKTIIPLISQCTPKVDFPQDQLSTLTGRIQEAGTEVVKAKAGAGSATLSMAYAGARFVFSLVDAMNGKEGVVECSFVKSQETDCPYFSTPLLLGKKGIEKNLGIGKISPFEEKMIAEAIPELKASIKKGEEFVKNMK
notes: malate dehydrogenase (MDH), thermolabile model substrate; The aggregation, centrifugation and SEC methods say only 'MDH'; also called His6-tagged MDH; source: E. coli (derivative of MC4100), purified (Ni-IDA)
B2: MDH labelled with 7-diethylcoumarin-3-carboxylic acid (enzyme, UniProt P00346 25-338, looked up)
chain: AKVAVLGASGGIGQPLSLLLKNSPLVSRLTLYDIAHTPGVAADLSHIETRATVKGYLGPEQLPDCLKGCDVVVIPAGVPRKPGMTRDDLFNTNATIVATLTAACAQHCPDAMICIISNPVNSTIPITAEVFKKHGVYNPNKIFGVTTLDIVRANAFVAELKGLDPARVSVPVIGGHAGKTIIPLISQCTPKVDFPQDQLSTLTGRIQEAGTEVVKAKAGAGSATLSMAYAGARFVFSLVDAMNGKEGVVECSFVKSQETDCPYFSTPLLLGKKGIEKNLGIGKISPFEEKMIAEAIPELKASIKKGEEFVKNMK
modifications: 7-diethylcoumarin-3-carboxylic acid (succinimidyl ester labelling, sites not stated)
notes: malate dehydrogenase (MDH) purchased from Roche; also called labelled MDH; MDH (Roche); source: bought: Roche; labelled with 7-diethylcoumarin-3-carboxylic acid succinimidyl ester

What all share (settings): both partners purified
Experiment [1] deals with T1, Hsp42 (S. cerevisiae, UniProt Q12329 1-375).
T1 construct: Hsp42, small heat shock protein of S. cerevisiae; Cloned into pMal-c2E; the enterokinase site was changed to a PreScission site, so residues of that site may remain at the N-terminus; also called sHsp; small heat shock protein Hsp42; source: E. coli ArcticExpress, purified (amylose resin, PreScission cleavage, Sephacryl S-300); not shown: MBP, N-terminal, cleaved
T1 sequence (Q12329 whole entry): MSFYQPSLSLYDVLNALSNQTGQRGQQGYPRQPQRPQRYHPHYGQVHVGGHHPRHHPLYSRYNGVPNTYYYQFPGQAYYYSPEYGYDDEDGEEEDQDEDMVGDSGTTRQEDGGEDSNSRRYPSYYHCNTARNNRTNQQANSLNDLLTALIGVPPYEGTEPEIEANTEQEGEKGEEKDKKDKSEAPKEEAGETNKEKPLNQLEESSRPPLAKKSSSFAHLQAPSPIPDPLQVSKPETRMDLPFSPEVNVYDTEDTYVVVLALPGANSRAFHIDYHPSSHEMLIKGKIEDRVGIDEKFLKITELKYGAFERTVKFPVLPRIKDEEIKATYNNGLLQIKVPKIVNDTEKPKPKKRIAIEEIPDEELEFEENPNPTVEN
Kind of experiment: cross-linking; DSS cross-linking of Hsp42/MDH complexes; MDH cross-link pattern by western blot.

The target of experiment [2] is T1, Hsp42. Kind of experiment: FRET or BRET; MDH–YFP and coumarin-labelled MDH (each 0.25 μM) mixed in preheated buffer C at 47 °C (heat-induced co-aggregation); signal at 527 nm; with or without Hsp26 or Hsp42. Background: In BRET a luciferase serves as donor, and the signal depends on an acceptor being close.
Experiment [3] deals with B2. The experiment is described as above.
Experiment [4] concerns the target B1. Briefly: co-sedimentation; MDH (0.5 μM) denatured 60 min at 41 °C in buffer C with or without sHsps (0.1–2.5 μM); 10–50% glycerol gradient, 40,000 r.p.m., 1 h, 4 °C, and supernatant-pellet centrifugation; fractions by SDS-PAGE and western blot. (In general: In western blotting, separated proteins are transferred to a membrane and probed.)

Take B1: the binding result with Hsp42 [1] was “binds”.

Consider B2, for which the binding result in the experiment with Hsp42 [2] is listed as “binds”.

B3: Hsp26 (natural protein, S. cerevisiae, UniProt P15992 1-214, looked up)
chain: MSFNSPFFDFFDNINNEVDAFNRLLGEGGLRGYAPRRQLANTPAKDSTGKEVARPNNYAGALYDPRDETLDDWFDNDLSLFPSGFGFPRSVAVPVDILDHDNNYELKVVVPGVKSKKDIDIEYHQNKNQILVSGEIPSTLNEESKDKVKVKESSSGKFKRVITLPDYPGVDADNIKADYANGVLTLTVPKLKPQKDGKNHVKKIEVSSQESWGN
notes: Hsp26, small heat shock protein of S. cerevisiae; also called sHsp; small heat shock protein Hsp26; source: E. coli (derivative of MC4100), solubilised from the pellet in 8 M urea, purified (Ni-IDA, Sephacryl S-300); not shown: His6-Smt3, N-terminal, cleaved
On to B3, for which the binding result in experiment [3] and in experiment [4] was “binds” each time.

These data come from publication PMC5141385, “Small heat shock proteins sequester misfolding proteins in near-native conformation for cellular protection and efficient refolding” (Nature Communications, 2016).
